Data from article PMC4757451.

Substrate: NC(=O)N1c2ccccc2C=Cc2ccccc21
Assay: Steady-state NADPH oxidation by CYP3A4 Nanodiscs with CPR
Format: biochemical, human
Details: other: at 30 µM PGS; at 200 µM CBZ; pH 7.4; 37.0 °C

B1: CYP3A4 (Homo sapiens; S18F) (protein)
chain: MALLLAVFLVLLYLYGTHSHGLFKKLGIPGPTPLPFLGNILSYHKGFCMFDMECHKKYGKVWGFYDGQQPVLAITDPDMIKTVLVKECYSVFTNRRPFGPVGFMKSAISIAEDEEWKRLRSLLSPTFTSGKLKEMVPIIAQYGDVLVRNLRREAETGKPVTLKDVFGAYSMDVITSTSFGVNIDSLNNPQDPFVENTKKLLRFDFLDPFFLSITVFPFLIPILEVLNICVFPREVTNFLRKSVKRMKESRLEDTQKHRVDFLQLMIDSQNSKETESHKALSDLELVAQSIIFIFAGYETTSSVLSFIMYELATHPDVQQKLQEEIDAVLPNKAPPTYDTVLQMEYLDMVVNETLRLFPIAMRLERVCKKDVEINGMFIPKGVVVMIPSYALHRDPKYWTEPEKFLPERFSKKNKDNIDPYIYTPFGSGPRNCIGMRFALMNMKLALIRVLQNFSFKPCKETQIPLKLSLGGLLQPEKPVVLKVESRDGTVSGA
- kcat: 2.05 s⁻¹
